Test: protein stability index of a GFP-peptide fusion (GPS, HEK-293T) (PSI 1-6); higher = more stable
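Note: lentivirally expressed fusions sorted by FACS into six bins by GFP to DsRed ratio, PSI derived from sequencing read proportions per bin multiplied by bin number.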

YQSFVQFLQYYYQSGCLYRLRALG [TMEM120A WT]
protein stability index (parent: IOH55078_39, c terminus: a fixed tail appended): 2.71

WIHCFEGVTAIIFCVALSDYDLVL [GNAI1 WT]
protein stability index (parent: IOH55111_36, c terminus: a fixed tail appended): 2.97

LNFQIEHHLFPTMPRHNYHKVAPL [FADS1 WT]
protein stability index (parent: IOH55275_64, c terminus: a fixed tail appended): 2.38

EQVFSLGDGVSGGFFGIRDSSFL [ZBED1 WT]
protein stability index (parent: IOH55626_115, c terminus: native): 3.38

KAVEEELDAEDRPAWNSKLQYILA
protein stability index (parent: IOH55656_9, c terminus: a fixed tail appended): 2.81

HMFTPKLDKMLDPQVWREAATQVF
protein stability index (parent: IOH55656_48, c terminus: a fixed tail appended): 1.92

FCASTRLPPTPLLLFPEEEATNGR
protein stability index (parent: IOH56238_25, c terminus: a fixed tail appended): 2.88

EGLLRFSSWPFSIQDVVQPLTLQV
protein stability index (parent: IOH56238_29, c terminus: a fixed tail appended): 2.09

AGSRQALSFEVPPCNYDPEKWIQ [MGC16075 WT]
protein stability index (parent: IOH57016_8, c terminus: native): 1.84

FVAENSSLHPESGQENDATSPHFS [CD69 WT]
protein stability index (parent: IOH57037_2, c terminus: a fixed tail appended): 2.9

MELLRTITYQPAASTKMCEQALGK
protein stability index (parent: IOH57150_1, c terminus: a fixed tail appended): 2.16

YAELGQCSVFPATDAPEQFISQVT
protein stability index (parent: IOH57150_92, c terminus: a fixed tail appended): 2.17

RQHHHQSSFPGSLPQETNLTLKVC
protein stability index (parent: IOH57371_7, c terminus: a fixed tail appended): 2.86

LPQETNLTLKVCKPQAPQKLDPTL
protein stability index (parent: IOH57371_9, c terminus: a fixed tail appended): 3.74

ITQSWQVSVRVQPRGRAHLLPNPY
protein stability index (parent: IOH58746_10, c terminus: a fixed tail appended): 1.87

PRGRAHLLPNPYQQDFLGLPEELR
protein stability index (parent: IOH58746_12, c terminus: a fixed tail appended): 3.93

RGRHEQSPTSRPRKVSSLPPRSC
protein stability index (parent: IOH58746_22, c terminus: native): 2.58

YTPDLPRADVDHAIEKAFQLWSNV
protein stability index (parent: IOH59103_21, c terminus: a fixed tail appended): 1.83

FVRGDHRDNSPFDGPGGNLAHAFQ
protein stability index (parent: IOH59103_28, c terminus: a fixed tail appended): 1.98

MFFKDRFYMRTNPFYPEVELNFIS
protein stability index (parent: IOH59103_50, c terminus: a fixed tail appended): 2.27

FHGTRQYKFDPKTKRILTLQKANS
protein stability index (parent: IOH59103_74, c terminus: a fixed tail appended): 1.72

ETIQGFWLLTKIDHWNNEKERILL [TPRG1 WT]
protein stability index (parent: IOH59452_16, c terminus: a fixed tail appended): 2.09

ISKKFGDMSYSIRHSISMPAMRNS [TPD52L1 WT]
protein stability index (parent: IOH59709_21, c terminus: a fixed tail appended): 2.22

VEKVLRRWVDEEWPKRERGDPSRH [EDARADD WT]
protein stability index (parent: IOH59721_31, c terminus: a fixed tail appended): 2.77

FTQSGPIVSRATGRCLEVEMSKDA [GALNT9 WT]
protein stability index (parent: IOH59749_32, c terminus: a fixed tail appended): 2.02

CCSSADICPKCWTLMTMAIRIIDR [PRIM1 WT]
protein stability index (parent: IOH60890_21, c terminus: a fixed tail appended): 1.95

FMPAMQFSIPPWRYDAEVVAIAQK [KIAA1161 WT]
protein stability index (parent: IOH61072_98, c terminus: a fixed tail appended): 1.76

YHTSQSGDEMTSLSEYVSRMKETQ
protein stability index (parent: IOH61079_77, c terminus: a fixed tail appended): 3.7

QVANSAFVERVRKRGFEVVYMTEP
protein stability index (parent: IOH61079_83, c terminus: a fixed tail appended): 2.26

EADKNDKAVKDLVVLLFETALLSS
protein stability index (parent: IOH61079_108, c terminus: a fixed tail appended): 1.84

LPVETLGPASRMDPESERALQAPH
protein stability index (parent: IOH61084_4, c terminus: a fixed tail appended): 4.39

LQQLRARLQGLEADCVRGPDGVCL
protein stability index (parent: IOH61084_56, c terminus: a fixed tail appended): 2.22

EKQKQPRWREGTKDSHDPLPSWAE
protein stability index (parent: IOH61084_93, c terminus: a fixed tail appended): 2.16

FGEDGIFRHDRLRFRDFVDALEDS
protein stability index (parent: IOH61084_108, c terminus: a fixed tail appended): 2.59

GERVVINISGLRFETQLKTLCQFP
protein stability index (parent: IOH61428_18, c terminus: a fixed tail appended): 2.31

YQSGGRIRRPVNVPIDIFSEEIRF
protein stability index (parent: IOH61428_28, c terminus: a fixed tail appended): 2

FTSPDYQQQCHEMAERLEDSVLKG [C1orf55 WT]
protein stability index (parent: IOH61664_26, c terminus: a fixed tail appended): 2.15

ASVTIQARAEQEEEFISNTLFKKI
protein stability index (parent: IOH61736_17, c terminus: a fixed tail appended): 3.51

TLFKKIQALQKEKETLAVNYEKEE
protein stability index (parent: IOH61736_20, c terminus: a fixed tail appended): 3.05

FTPPTSLTRAGMSYYNSPGLHVQH
protein stability index (parent: IOH61736_64, c terminus: a fixed tail appended): 1.82

KIREKEEWIKLDYHRRHNPKTNED
protein stability index (parent: IOH62149_64, c terminus: a fixed tail appended): 4.36

CRNCINLQNEAQKRESFLKYKCLL
protein stability index (parent: IOH62149_105, c terminus: a fixed tail appended): 2

EADYEDDSKIAFLMQLQDIQYLTE
protein stability index (parent: IOH62149_110, c terminus: a fixed tail appended): 3.05

YCSIKCQQEHWHAEHKRTCRRKR [ZMYND11 WT]
protein stability index (parent: IOH62570_82, c terminus: native): 2.53

TPMTIPEFFRESVNRFGTYPALAS
protein stability index (parent: IOH62594_9, c terminus: a fixed tail appended): 2.12

FAQADALKGTLVSTLKEVKPTVFI
protein stability index (parent: IOH62594_50, c terminus: a fixed tail appended): 1.64

MAEISRIQYEMEYTEGISQRMRVP
protein stability index (parent: IOH62657_1, c terminus: a fixed tail appended): 2.65

YTEGISQRMRVPEKLKVAPPNADL
protein stability index (parent: IOH62657_3, c terminus: a fixed tail appended): 2.94

DDLTVVDAASLRRQIIKLNRRLQL
protein stability index (parent: IOH62657_32, c terminus: a fixed tail appended): 2.1

HDPLYGKLFSTYLRPPHTSRGTSQ [LPCAT4 WT]
protein stability index (parent: IOH62663_80, c terminus: a fixed tail appended): 2.6

VAHVKHLSASQKALKEKEKASWSS
protein stability index (parent: IOH62819_9, c terminus: a fixed tail appended): 3.21

FDKEWVAKQTKRMLDMKVNPIQGL
protein stability index (parent: IOH62819_23, c terminus: a fixed tail appended): 1.75

YSEYPECCVDVKPISQEKIESERA [DUSP5 WT]
protein stability index (parent: IOH62976_23, c terminus: a fixed tail appended): 4.09

Source: the supplement of paper PMC10567573
